From paper PMC9352680, “A comprehensive thermodynamic model for RNA binding by the Saccharomyces cerevisiae Pumilio protein PUF4”
Changes are numbered by the printed parent chain. Names and notes keep the numbering of the source.

B1: Id_ii_S4_P3E.3_K3.2_C3.2_[C-2T]_[T-1A]_H3.2_A3.1_F3.1_T3.2_[T9C] (ssRNA)
RNA: UUUGACAACUGAUCGUUCUUUCUUAUAUAUAUACAUUCUUUCUCGAUCAGUUGUCUUU
B2: Id_ii_S4_P3E.3_K3.2_C3.2_[C-2T]_[T-1A]_H3.2_A3.1_F3.1_T3.2_[T9A]_[A10C] (ssRNA)
RNA: B1 RNA with C34A, A35C
B3: Id_ii_S4_P3E.3_K3.2_C3.2_[C-2T]_[T-1A]_H3.2_A3.1_F3.1_T3.2_[A10C] (ssRNA)
RNA: B1 RNA with C34U, A35C
B4: Ib_S1_P5E.1_K5.1_C5.1_H5.1_[T1C]_A5.1_[A7G]_F5.1_T5.1 (ssRNA)
RNA: UCUCUUCGUAUUGUUAUCUCUU
B5: Id_ii_S4_P3E.3_K3.2_C3.2_[C-2T]_H3.2_A3.1_F3.1_T3.2_[T9G]_[A10T] (ssRNA)
RNA: B1 RNA with A25U, C34G, A35U
B6: Id_ii_S4_P3E.3_K3.2_C3.2_[C-2T]_H3.2_A3.1_F3.1_T3.2_[T9C] (ssRNA)
RNA: B1 RNA with A25U
B7: Id_ii_S4_P3E.3_K3.2_C3.2_[C-2T]_H3.2_A3.1_F3.1_T3.2_[A10T] (ssRNA)
RNA: B1 RNA with A25U, C34U, A35U
B8: Id_ii_S4_P3E.3_K3.2_C3.2_[C-2T]_H3.2_A3.1_F3.1_T3.2 (ssRNA)
RNA: B1 RNA with A25U, C34U
B9: Id_ii_S4_P3E.3_K3.2_C3.2_[C-2A]_[T-1G]_H3.2_A3.1_F3.1_T3.2_[T9A]_[A10G] (ssRNA)
RNA: B1 RNA with U24A, A25G, C34A, A35G
B10: Id_ii_S4_P3E.3_K3.2_C3.2_[C-2A]_[T-1C]_H3.2_A3.1_F3.1_T3.2_[T9C]_[A10G] (ssRNA)
RNA: B1 RNA with U24A, A25C, A35G
B11: Id_ii_S4_P3E.3_K3.2_C3.2_[C-2A]_[T-1C]_H3.2_A3.1_F3.1_T3.2_[T9C]_[A10C] (ssRNA)
RNA: B1 RNA with U24A, A25C, A35C
B12: Id_ii_S4_P3E.3_K3.2_C3.2_[C-2A]_[T-1C]_H3.2_A3.1_F3.1_T3.2_[T9C]_[A10T] (ssRNA)
RNA: B1 RNA with U24A, A25C, A35U
B13: Id_ii_S4_P3E.3_K3.2_C3.2_[C-2A]_[T-1C]_H3.2_A3.1_F3.1_T3.2_[T9C] (ssRNA)
RNA: B1 RNA with U24A, A25C
B14: Id_ii_S4_P3E.3_K3.2_C3.2_[C-2A]_[T-1A]_H3.2_A3.1_F3.1_T3.2_[T9C]_[A10G] (ssRNA)
RNA: B1 RNA with U24A, A35G
B15: Ib_S1_P5E.1_K5.1_C5.1_H5.1_[T1A]_A5.1_[A7C]_F5.1_T5.1 (ssRNA)
RNA: UCUCUUAGUAUUCUUAUCUCUU
B16: Id_ii_S4_P3E.3_K3.2_C3.2_[C-2A]_[T-1A]_H3.2_A3.1_F3.1_T3.2_[T9C]_[A10T] (ssRNA)
RNA: B1 RNA with U24A, A35U
B17: Id_ii_S4_P3E.3_K3.2_C3.2_[C-2A]_[T-1A]_H3.2_A3.1_F3.1_T3.2_[T9A]_[A10C] (ssRNA)
RNA: B1 RNA with U24A, C34A, A35C
B18: Id_ii_S4_P3E.3_K3.2_C3.2_[C-2A]_[T-1A]_H3.2_A3.1_F3.1_T3.2_[T9A]_[A10T] (ssRNA)
RNA: B1 RNA with U24A, C34A, A35U
B19: Id_ii_S4_P3E.3_K3.2_C3.2_[C-2A]_[T-1A]_H3.2_A3.1_F3.1_T3.2_[T9A] (ssRNA)
RNA: B1 RNA with U24A, C34A
B20: Id_ii_S4_P3E.3_K3.2_C3.2_[C-2A]_[T-1A]_H3.2_A3.1_F3.1_T3.2_[A10C] (ssRNA)
RNA: B1 RNA with U24A, C34U, A35C
B21: Id_ii_S4_P3E.3_K3.2_C3.2_[C-2A]_H3.2_A3.1_F3.1_T3.2_[T9C]_[A10T] (ssRNA)
RNA: B1 RNA with U24A, A25U, A35U
B22: Id_ii_S4_P3E.3_K3.2_C3.2_[C-2A]_H3.2_A3.1_F3.1_T3.2_[T9A] (ssRNA)
RNA: B1 RNA with U24A, A25U, C34A
B23: Id_ii_S4_P3E.3_K3.2_C3.2_[C-2A]_H3.2_A3.1_F3.1_T3.2_[A10G] (ssRNA)
RNA: B1 RNA with U24A, A25U, C34U, A35G
B24: Id_ii_S4_P3E.3_K3.2_C3.2_[C-2A]_H3.2_A3.1_F3.1_T3.2_[A10C] (ssRNA)
RNA: B1 RNA with U24A, A25U, C34U, A35C
B25: Id_ii_S4_P3E.3_K3.2_C3.2_[C-2A]_H3.2_A3.1_F3.1_T3.2_[A10T] (ssRNA)
RNA: B1 RNA with U24A, A25U, C34U, A35U
B26: Ib_S1_P5E.1_K5.1_C5.1_H5.1_[T1A]_A5.1_[A7T]_F5.1_T5.1 (ssRNA)
RNA: UCUCUUAGUAUUUUUAUCUCUU
B27: Id_ii_S4_P3E.3_K3.2_C3.2_[C-2A]_H3.2_A3.1_F3.1_T3.2 (ssRNA)
RNA: B1 RNA with U24A, A25U, C34U
B28: Id_ii_S4_P3E.3_K3.2_C3.2_[T-1G]_H3.2_A3.1_F3.1_T3.2_[T9G]_[A10C] (ssRNA)
RNA: B1 RNA with U24C, A25G, C34G, A35C
B29: Id_ii_S4_P3E.3_K3.2_C3.2_[T-1G]_H3.2_A3.1_F3.1_T3.2_[T9C]_[A10C] (ssRNA)
RNA: B1 RNA with U24C, A25G, A35C

Target: T1, PUF4 RNA-binding domain (Saccharomyces cerevisiae, UniProt P25339 537-888)
T1 sequence: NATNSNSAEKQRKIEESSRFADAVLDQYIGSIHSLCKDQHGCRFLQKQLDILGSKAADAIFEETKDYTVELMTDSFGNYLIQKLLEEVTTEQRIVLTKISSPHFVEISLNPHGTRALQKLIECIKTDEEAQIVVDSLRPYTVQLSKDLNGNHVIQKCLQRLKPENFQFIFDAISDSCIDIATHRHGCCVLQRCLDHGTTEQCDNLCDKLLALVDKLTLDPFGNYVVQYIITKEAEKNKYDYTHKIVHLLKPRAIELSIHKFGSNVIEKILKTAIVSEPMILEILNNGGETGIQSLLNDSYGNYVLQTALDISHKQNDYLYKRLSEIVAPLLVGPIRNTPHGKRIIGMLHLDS
Experiment: Mg; RNA-MaP; 20 mM Na-HEPES pH 7.4, 30 mM KOAc, 0.75 mM MgCl2, 0.1% Tween-20, 5% glycerol, 0.1 mg/mL BSA, 2 mM DTT; 25 C; 0.0125-409.6 nM protein
Conditions: tags: N-His6-TEV cleaved; C-SNAP kept, Cy3B-labelled; label: tethered on chip by stalled RNA polymerase

| Binder | Kd [nM] |
| --- | --- |
| B1 | 94.6 |
| B2 | 326 |
| B3 | 108 |
| B4 | > 2300 |
| B5 | 575 |
| B6 | 220 |
| B7 | 70 |
| B8 | 117 |
| B9 | 1140 |
| B10 | 2050 |
| B11 | 184 |
| B12 | 132 |
| B13 | 261 |
| B14 | 745 |
| B15 | 1460 |
| B16 | 167 |
| B17 | 445 |
| B18 | 584 |
| B19 | 723 |
| B20 | 296 |
| B21 | 214 |
| B22 | 831 |
| B23 | 978 |
| B24 | 134 |
| B25 | 203 |
| B26 | 1470 |
| B27 | 596 |
| B28 | 194 |
| B29 | 978 |
